B1: Pistol ribozyme (parent)
chain: GGGUCGUUGUUCCAUAAUCGCGUGGAUAUGGCACGCAAGUUUCUACCGGGCACCGUAAAUGUCCGACUGGAGCCGUUCGGGCGGCUAUAAACAGACCUCAGGCCCGAAGCGUGGCGGCACCUGCCGCCGGUGGUAAAAAAGAUCGGAAGAGCACACGUCU

Variants of: B1
Experiment: aptazyme ON/OFF ratio, guanine; higher = stronger switching; co-transcriptional cleavage with and without guanine

Variant	aptazyme ON/OFF ratio
U7C U10A U11C C12U C13A	1.05
U7C U10A U11C C12U C13U	1.05
U7C U10A U11C C12U C13G	1.07
U7C U8G U10G U11C C12G	1.55
U7C U8G U10G U11C C12A	1.34
U7C U8G U10G U11C C12U	1.16
U7C U8G U10G U11G C12U C13A	1.25
U7C U8G U10G U11G C12U C13U	1.4
U7C U8G U10G U11G C12U C13G	1.26
U7C U8G U10C U11A C12U C13U	1.24
U7C U8G U10C U11A C12U C13A	1.15
U7C U8G U10C U11A C12U C13G	1.11
U7C U10A U11A C12G C13A	1.11
U7C U10A U11A C12G C13U	1.17
U7C U10A U11A C12G C13G	1.33
U7C U8G U10G U11A C13U	1.28
U7C U8G U10G U11A C13A	1.18
U7C U8G U10G U11A C13G	1.13
U7C U10A U11G C12G	1.18
U7C U10A U11G C12A	1.29
U7C U10A U11G C12U	1.19
U7C U8G U10G U11C C13A	1.24
U7C U8G U10G U11C C13G	1.2
U7C U8G U10G U11C C13U	1.14

Variant	aptazyme ON/OFF ratio
U7C U8G U10C U11A C12U	3.58
U7C U8G U10C U11G C13U	2.15
U7C U8G U10C U11G C13G	1.1
U7C U8G U10C U11G C13A	1.39
U7C U10A U11A	1.29
U7C U10A U11C	1.04
U7C U10A U11G	1.46
U7C U10C U11C C12A C13U	1.2
U7C U10C U11C C12A C13A	1.25
U7C U10C U11C C12A C13G	1.32
U7C U10G U11A C12U C13U	1.22
U7C U10G U11A C12U C13G	1.1
U7C U10G U11A C12U C13A	1.19
U7C U8G U10G	1.22
U7C U8G U10G U11A C12A	1.21
U7C U8G U10G U11A C12U	1.37
U7C U8G U10G U11A C12G	1.14
U7C U10G U11C C12A C13A	1.21
U7C U10G U11C C12A C13G	1.11
U7C U10G U11C C12A C13U	1.18
U7C U10A U11A C12A C13A	1.17
U7C U10A U11A C12A C13U	1.21
U7C U10A U11A C12A C13G	1.11
U7C U8G U11C C13A	1.3

Variant	aptazyme ON/OFF ratio
U7C U8G U11C C13U	1.36
U7C U8G U11C C13G	1.12
U7C U10C U11A C13G	1.21
U7C U10C U11A C13U	1.38
U7C U10C U11A C13A	1.14
U7C U8G U10C U11G	2
U7C U8G U10C U11C	3.48
U7C U10G C12G	1.18
U7C U10G C12A	1.11
U7C U10G C12U	1.32
U7C U10A U11G C12G C13U	1.12
U7C U10A U11G C12G C13A	1.26
U7C U10A U11G C12G C13G	1.16
U7C U10G C12U C13A	1.25
U7C U10G C12U C13U	1.24
U7C U10G C12U C13G	1.11
U7C U10A U11A C12U C13U	1.27
U7C U10A U11A C12U C13A	1.28
U7C U10A U11A C12U C13G	1.16
U7C U10A U11G C12U C13G	1.2
U7C U10A U11G C12U C13U	1.5
U7C U10A U11G C12U C13A	1.35
U7C U10C C12U C13U	1.36
U7C U10C C12U C13G	1.28

Variant	aptazyme ON/OFF ratio
U7C U10C C12U C13A	1.3
U7C U8G U10G U11G C12U	1.21
U7C U8G U10G U11G C12G	1.21
U7C U8G U10G U11G C12A	1.28
U7C U10C U11C C12G C13A	1.25
U7C U10C U11C C12G C13G	1.18
U7C U10C U11C C12G C13U	1.24
U7C U10C U11G C12G C13G	1.16
U7C U10C U11G C12G C13A	1.19
U7C U10C U11G C12G C13U	1.1
U7C U10C U11C C13A	1.07
U7C U10C U11C C13G	1.14
U7C U10C U11C C13U	1.08
U7C U10A U11C C12A C13G	1.12
U7C U10A U11C C12A C13U	1.1
U7C U10A U11C C12A C13A	1.1
U7C U8G U10G C12U C13U	1.37
U7C U8G U10G C12U C13G	1.23
U7C U8G U10G C12U C13A	1.27
U7C U8G U10G U11C C12A C13G	1.1
U7C U8G U10G U11C C12A C13U	1.42
U7C U8G U10G U11C C12A C13A	1.19
U7C U8G U10C U11G C12U	1.97
U7C U8G U10C U11G C12G	1.32

Variant	aptazyme ON/OFF ratio
U7C U8G U10C U11G C12A	2.9
U7C U10G C13A	1.2
U7C U10G C13G	1.16
U7C U10G C13U	1.39
U7C U8G U10G U11G C12G C13G	1.15
U7C U8G U10G U11G C12G C13U	1.26
U7C U8G U10G U11G C12G C13A	1.17
U7C U10A C13G	1.05
U7C U10A C13A	1.06
U7C U10A C13U	1.04
U7C U10C C13A	1.11
U7C U10C C13U	2.47
U7C U10C C13G	1.28
U7C U8G U10G U11A C12U C13G	1.11
U7C U8G U10G U11A C12U C13U	1.23
U7C U8G U10G U11A C12U C13A	1.23
U7C U10A U11G C12A C13A	1.17
U7C U10A U11G C12A C13G	0.975
U7C U10A U11G C12A C13U	1.17
U7C U8G U10C U11C C12A	1.48
U7C U8G U10C U11C C12G	1.41
U7C U8G U10C U11C C12U	2.76
U7C U10C U11G C12A C13U	1.33
U7C U10C U11G C12A C13G	1.19

Variant	aptazyme ON/OFF ratio
U7C U10C U11G C12A C13A	1.11
U7C U8G U11G C12G C13U	1.05
U7C U8G U11G C12G C13G	1.08
U7C U8G U11G C12G C13A	1.07
U7C U10C U11A C12G C13G	1.15
U7C U10C U11A C12G C13U	1.15
U7C U10C U11A C12G C13A	1.15
U7C U8G U10G U11A C12G C13A	1.1
U7C U8G U10G U11A C12G C13U	1.14
U7C U8G U10G U11A C12G C13G	1.21
U7C U10G U11A C13G	1.18
U7C U10G U11A C13U	1.08
U7C U10G U11A C13A	1.1
U7C U10A	1.12
U7C U10C	1.92
U7C U10G	1.65
U7C U10A C12U C13G	1.14
U7C U10A C12U C13U	1.35
U7C U10A C12U C13A	1.19
U7C U8G U11G C12A	1.29
U7C U8G U11G C12G	1.1
U7C U8G U11G C12U	1.19
U7C U10A C12G C13A	1.18
U7C U10A C12G C13U	1.23

Variant	aptazyme ON/OFF ratio
U7C U10A C12G C13G	1.14
U7C U10C U11A C12G	1.38
U7C U10C U11A C12U	1.42
U7C U10C U11A C12A	1.53
U7C U8G U11A C13U	1.16
U7C U8G U11A C13G	1.07
U7C U8G U11A C13A	1.07
U7C U8G U10C U11G C12A C13A	1.11
U7C U8G U10C U11G C12A C13G	1.1
U7C U8G U10C U11G C12A C13U	1.32
U7C U10A U11C C12G C13U	1.22
U7C U10A U11C C12G C13A	1.2
U7C U10A U11C C12G C13G	1.31
U7C U8G U11G C13A	1.13
U7C U8G U11G C13U	1.14
U7C U8G U11G C13G	1.07
U7C U10G U11G	1.23
U7C U10G U11A	1.1
U7C U10G U11C	1.1
U7C U8G U10C U11G C12G C13U	1.11
U7C U8G U10C U11G C12G C13A	1.09
U7C U8G U10C U11G C12G C13G	1.09
U7C U8G U10C U11C C12U C13G	1.23

Reference: the RNAGym collection of RNA variant scans (doi:10.1021/acssynbio.7b00057)
